Positions count from the first letter of the chain named. In names and notes the source's numbering stands.
B1: ketosteroid isomerase (KSI) Y32F/Y57F (enzyme, Pseudomonas putida)
chain: MNLPTAQEVQGLMARYIELVDVGDIEAIVQMFADDATVEDPFGQPPIHGREQIAAFFRQGLGGGKVRACLTGPVRASHNGCGAMPFRVEMVWNGQPCALDVIDVMRFDEHGRIQTMQAYWSEVNLSVREPQ
B2: ketosteroid isomerase (KSI) Y57F (enzyme, Pseudomonas putida)
chain: B1 chain with F32Y
B3: ketosteroid isomerase (KSI) Y57F/D40N (enzyme, Pseudomonas putida)
chain: LPTAQEVQGLMARYIELVDVGDIEAIVQMYADDATVENPFGQPPIHGREQIAAFFRQGLGGGKVRACLTGPVRASHNGCGAMPFRVEMVWNGQPCALDVIDVMRFDEHGRIQTMQAYWSEVNLSVREPQ

Biological target: the molecule itself
Experiment: crystal structure

Protein	stoichiometry N
B1	2
B2	2
B3	2
